Measured values from IntAct's records for PubMed 18996118.

B1: Membrane protein insertase YidC (Escherichia coli (strain K12)), P25714 (parent)
chain: MDSQRNLLVIALLFVSFMIWQAWEQDKNPQPQAQQTTQTTTTAAGSAADQGVPASGQGKLISVKTDVLDLTINTRGGDVEQALLPAYPKELNSTQPFQLLETSPQFIYQAQSGLTGRDGPDNPANGPRPLYNVEKDAYVLAEGQNELQVPMTYTDAAGNTFTKTFVLKRGDYAVNVNYNVQNAGEKPLEISSFGQLKQSITLPPHLDTGSSNFALHTFRGAAYSTPDEKYEKYKFDTIADNENLNISSKGGWVAMLQQYFATAWIPHNDGTNNFYTANLGNGIAAIGYKSQPVLVQPGQTGAMNSTLWVGPEIQDKMAAVAPHLDLTVDYGWLWFISQPLFKLLKWIHSFVGNWGFSIIIITFIVRGIMYPLTKAQYTSMAKMRMLQPKIQAMRERLGDDKQRISQEMMALYKAEKVNPLGGCFPLLIQMPIFLALYYMLMGSVELRQAPFALWIHDLSAQDPYYILPILMGVTMFFIQKMSPTTVTDPMQQKIMTFMPVIFTVFFLWFPSGLVLYYIVSNLVTIIQQQLIYRGLEKRGLHSREKKKS
partner: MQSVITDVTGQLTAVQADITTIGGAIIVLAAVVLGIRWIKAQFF
B2: Capsid protein (Pseudomonas phage Pf3), P03623 (parent)
chain: B1 partner
partner: B1 chain

Variants of: B1
Details: with capsd_bppf3 VIII, P03623

| Variant | effect of a mutation on the interaction |
| --- | --- |
| MDSQRNLLVIALLFVCFMIWQAWEQDKNPQPQAQQTTQTTTTAAGSAADQGVPASGQGKLISVKTDVLDLTINTRGGDVEQALLPAYPKELNSTQPFQLLETSPQFIYQAQSGLTGRDGPDNPANGPRPLYNVEKDAYVLAEGQNELQVPMTYTDAAGNTFTKTFVLKRGDYAVNVNYNVQNAGEKPLEISSFGQLKQSITLPPHLDTGSSNFALHTFRGAAYSTPDEKYEKYKFDTIADNENLNISSKGGWVAMLQQYFATAWIPHNDGTNNFYTANLGNGIAAIGYKSQPVLVQPGQTGAMNSTLWVGPEIQDKMAAVAPHLDLTVDYGWLWFISQPLFKLLKWIHSFVGNWGFSIIIITFIVRGIMYPLTKAQYTSMAKMRMLQPKIQAMRERLGDDKQRISQEMMALYKAEKVNPLGGCFPLLIQMPIFLALYYMLMGSVELRQAPFALWIHDLSAQDPYYILPILMGVTMFFIQKMSPTTVTDPMQQKIMTFMPVIFTVFFLWFPSGLVLYYIVSNLVTIIQQQLIYRGLEKRGLHSREKKKS [S16C] | increasing interaction |

Variants of: B1
Details: with capsd_bppf3 VIII

| Variant | effect of a mutation on the interaction |
| --- | --- |
| MDSQRNLLVIALLFVSFMIWQAWEQDKNPQPQAQQTTQTTTTAAGSAADQGVPASGQGKLISVKTDVLDLTINTRGGDVEQALLPAYPKELNSTQPFQLLETSPQFIYQAQSGLTGRDGPDNPANGPRPLYNVEKDAYVLAEGQNELQVPMTYTDAAGNTFTKTFVLKRGDYAVNVNYNVQNAGEKPLEISSFGQLKQSITLPPHLDTGSSNFALHTFRGAAYSTPDEKYEKYKFDTIADNENLNISSKGGWVAMLQQYFATAWIPHNDGTNNFYTANLGNGIAAIGYKSQPVLVQPGQTGAMNSTLWVGPEIQDKMAAVAPHLDLTVDYGWLWFISQPLFKLLKWIHSFVGNWGFSIIIITFIVRGIMYPLTKAQYTSMAKMRMLQPKIQAMRERLGDDKQRISQEMMALYKAEKVNPLGGCFPLLIQCPIFLALYYMLMGSVELRQAPFALWIHDLSAQDPYYILPILMGVTMFFIQKMSPTTVTDPMQQKIMTFMPVIFTVFFLWFPSGLVLYYIVSNLVTIIQQQLIYRGLEKRGLHSREKKKS [M430C] | increasing interaction |

Variants of: B1
Details: with capsd_bppf3 VIII
Remark: another data set of the same source

| Variant | effect of a mutation on the interaction |
| --- | --- |
| MDSQRNLLVIALLFVSCMIWQAWEQDKNPQPQAQQTTQTTTTAAGSAADQGVPASGQGKLISVKTDVLDLTINTRGGDVEQALLPAYPKELNSTQPFQLLETSPQFIYQAQSGLTGRDGPDNPANGPRPLYNVEKDAYVLAEGQNELQVPMTYTDAAGNTFTKTFVLKRGDYAVNVNYNVQNAGEKPLEISSFGQLKQSITLPPHLDTGSSNFALHTFRGAAYSTPDEKYEKYKFDTIADNENLNISSKGGWVAMLQQYFATAWIPHNDGTNNFYTANLGNGIAAIGYKSQPVLVQPGQTGAMNSTLWVGPEIQDKMAAVAPHLDLTVDYGWLWFISQPLFKLLKWIHSFVGNWGFSIIIITFIVRGIMYPLTKAQYTSMAKMRMLQPKIQAMRERLGDDKQRISQEMMALYKAEKVNPLGGCFPLLIQMPIFLALYYMLMGSVELRQAPFALWIHDLSAQDPYYILPILMGVTMFFIQKMSPTTVTDPMQQKIMTFMPVIFTVFFLWFPSGLVLYYIVSNLVTIIQQQLIYRGLEKRGLHSREKKKS [F17C] | increasing interaction |

Variants of: B2
Details: with yidc_ecoli yidC, P25714

| Variant | effect of a mutation on the interaction |
| --- | --- |
| MQSVITDVTGQLTAVQADITTIGGAICVLAAVVLGIRWIKAQFF | increasing interaction |

Variants of: B2
Details: with yidc_ecoli yidC

| Variant | effect of a mutation on the interaction |
| --- | --- |
| MQSVITDVTGQLTAVQADITTIGGAIICLAAVVLGIRWIKAQFF | increasing interaction |
